In the data set the target is T1, JAVL (JAVL_A) (UniProt A0A1U8LLK1 1-170).
T1 sequence: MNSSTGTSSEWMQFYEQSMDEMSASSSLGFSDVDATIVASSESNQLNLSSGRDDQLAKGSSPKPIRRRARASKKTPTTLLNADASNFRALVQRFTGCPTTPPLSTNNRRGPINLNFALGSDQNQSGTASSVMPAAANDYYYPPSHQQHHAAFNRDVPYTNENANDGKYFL
Kind of data set: EMSA; EMSA: 30 °C for 30 min, then 5% native PAGE in Tris/borate/EDTA, 10 V/cm, 4 °C; 10x and 100x cold competitor; binding buffer, salt and pH not stated. The settings on record: protein: recombinant; tags: His (pET32a); label: Cy5; blunt (duplex implied, only one strand printed).

Data on two molecules can be found in publication PMC11321651, “Regulation of Glandular Size and Phytoalexin Biosynthesis by a Negative Feedback Loop in Cotton”.

B1: GoPGF promoter G-box probe (dsDNA)
DNA 1: AACAGGAGATTTCCACGTGATAATGATGTCAA
DNA 2: TTGACATCATTATCACGTGGAAATCTCCTGTT
As to B1, the binding result was “binds”.

B2: AOS promoter G-box probe (dsDNA)
DNA 1: TTATGGCTGTAAAAACGTGCGAATTCATGGAG
DNA 2: CTCCATGAATTCGCACGTTTTTACAGCCATAA
For the molecule B2, the binding result was “binds”.
